Measured values: patent US20260022175A1 (Chugai, published 2026)
Numbering of substitutions follows the chain as printed. Names may count otherwise. Blank lines part the entries; values can stand above or below the binder they belong to.

What was measured:
human CTLA4 [1] = target: T1, human CTLA4 (human); test: SPR Biacore T200, 37C, antibody captured, ATP 1 uM
T1 construct: also called hCTLA4; hCTLA4-His-BAP
Protocol: (§1) Biacore T200 was used to measure the binding of the generated antibodies to human CTLA4. 20 mM ACES (pH 7.4), 150 mM NaCl, 2 mM MgCl₂, 0.05% Tween 20 with ATP added to the desired concentration was used as the running buffer, and the assay was performed at 37° C. First, Protein G (CALBIOCHEM) was immobilized onto a Series S Sensor Chip CM3 (GE Healthcare), and the antibodies were captured by interacting an antibody solution prepared in an ATP-free running buffer with the chip. Next, by interacting with a human CTLA4 solution prepared in a running buffer containing ATP to the desired concentration, or a human CTLA4 solution prepared in a running buffer containing no ATP, the binding ability of the antibody to human CTLA4 in the presence or absence of ATP was evaluated. Chips were regenerated with 25 mM NaOH and 10 mM Glycine-HCl (pH 1.5), and assay was performed by repeatedly capturing antibodies. The dissociation constant of each antibody for CTLA4 was calculated using Biacore T200 Evaluation Software 2.0. Specifically, the binding rate constant ka (L/mol/s) and the dissociation rate constant kd (1/s) were calculated by global fitting of the sensorgrams obtained by the measurement, using a 1:1 Langmuir binding model. The dissociation constant KD (mol/L) was calculated from those values. Alternatively, the dissociation constant KD (mol/L) was calculated by the steady state model. In addition, the binding amount of CTLA4 per unit amount of antibody was calculated by correcting the amount of CTLA4 bound as calculated from the sensorgram obtained by the assay with the amount of antibody captured onto the chip surface.

human CTLA4 [2] = target: T1, human CTLA4; test: SPR Biacore T200, 37C, antibody captured, ATP 10 uM
Protocol: (§2) Biacore T200 was used to measure the binding of the generated antibodies to human CTLA4. 20 mM ACES (pH 7.4), 150 mM NaCl, 2 mM MgCl₂, 0.05% Tween 20 with ATP added to the desired concentration was used as the running buffer, and the assay was performed at 37° C. First, Protein G (CALBIOCHEM) was immobilized onto a Series S Sensor Chip CM3 (GE Healthcare), and the antibodies were captured by interacting an antibody solution prepared in an ATP-free running buffer with the chip. Next, by interacting with a human CTLA4 solution prepared in a running buffer containing ATP to the desired concentration, or a human CTLA4 solution prepared in a running buffer containing no ATP, the binding ability of the antibody to human CTLA4 in the presence or absence of ATP was evaluated. Chips were regenerated with 25 mM NaOH and 10 mM Glycine-HCl (pH 1.5), and assay was performed by repeatedly capturing antibodies. The dissociation constant of each antibody for CTLA4 was calculated using Biacore T200 Evaluation Software 2.0. Specifically, the binding rate constant ka (L/mol/s) and the dissociation rate constant kd (1/s) were calculated by global fitting of the sensorgrams obtained by the measurement, using a 1:1 Langmuir binding model. The dissociation constant KD (mol/L) was calculated from those values. Alternatively, the dissociation constant KD (mol/L) was calculated by the steady state model. […]

human CTLA4 [3] = target: T1, human CTLA4; test: as above; remark: listed apart in the source
Protocol: as §1

human CTLA4 [4] = target: T1, human CTLA4; test: SPR Biacore T200, 37C, antibody captured, ADP 10 uM;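 further: antibodies held on a Protein G CM3 chip, human CTLA4 as analyte in ACES pH 7.4 buffer, rates from a global 1:1 Langmuir fit, Kd from rates or steady state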
human CTLA4 [5] = target: T1, human CTLA4; test: SPR Biacore T200, 37C, antibody captured, AMP 10 uM
Protocol: as §1
(§3) The binding ability of the generated variants to human CTLA4 in the presence of ADP or AMP was evaluated by Biacore T200 and compared with the binding ability in the presence of ATP.

human CTLA4 [6] = target: T1, human CTLA4; test: SPR Biacore T200, 37C, antibody captured, ATP 10 uM; remark: listed apart in the source
Protocol: as §1, §3

human CTLA4 [7] = target: T1, human CTLA4; test: SPR Biacore T200, 37C, antibody captured, ATP 100 uM
Protocol: as §2

human CTLA4 [8] = target: T1, human CTLA4; test: SPR Biacore T200, 37C, antibody captured, no ATP, steady state model
Protocol: as §2

human CTLA4 [9] = target: T1, human CTLA4; test: as above; remark: listed apart in the source
Protocol: Biacore T200 was used to measure the binding of the generated antibodies to human CTLA4. 20 mM ACES (pH 7.4), 150 mM NaCl, 2 mM MgCl₂, 0.05% Tween 20 with ATP added to the desired concentration was used as the running buffer, and the assay was performed at 37° C. First, Protein G (CALBIOCHEM) was immobilized onto a Series S Sensor Chip CM3 (GE Healthcare), and the antibodies were captured by interacting an antibody solution prepared in an ATP-free running buffer with the chip. Next, by interacting with a human CTLA4 solution prepared in a running buffer containing ATP to the desired concentration, or a human CTLA4 solution prepared in a running buffer containing no ATP, the binding ability of the antibody to human CTLA4 in the presence or absence of ATP was evaluated. Chips were regenerated with 25 mM NaOH and 10 mM Glycine-HCl (pH 1.5), and assay was performed by repeatedly capturing antibodies. The dissociation constant of each antibody for CTLA4 was calculated using Biacore T200 Evaluation Software 2.0. Specifically, the binding rate constant ka (L/mol/s) and the dissociation rate constant kd (1/s) were calculated by global fitting of the sensorgrams obtained by the measurement, using a 1:1 Langmuir binding model. The dissociation constant KD (mol/L) was calculated from those values. Alternatively, the dissociation constant KD (mol/L) was calculated by the steady state model.

human CTLA4 [10] = target: T1, human CTLA4; test: SPR Biacore T200, 37C, antibody captured, ATP 1 uM; remark: listed apart in the source
Protocol: as §1
(§4) Next, the binding ability of some variants to mouse CTLA4 and cynomolgus monkey CTLA4 was evaluated.

[11] = target: T2, mouse CTLA4 extracellular region linked with a His-tag (mCTLA4-His) (mouse, UniProt P09793 36-161); test: SPR Biacore T200, 37C, antibody captured, ATP 1 uM
Protocol: as §1, §4

[12] = target: T3, cynomolgus monkey CTLA4 (CyCTLA4-His-BAP) (cynomolgus monkey); test: SPR Biacore T200, 37C, antibody captured, ATP 1 uM
T3 sequence (chain, as listed by the source limits assumed): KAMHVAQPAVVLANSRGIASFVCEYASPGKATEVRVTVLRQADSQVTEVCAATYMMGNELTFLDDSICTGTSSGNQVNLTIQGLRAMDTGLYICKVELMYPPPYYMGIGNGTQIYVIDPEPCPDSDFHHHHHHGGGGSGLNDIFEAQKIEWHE
Protocol: as §1, §4

human CTLA4 [13] = target: T1, human CTLA4; test: SPR Biacore T200, 37C, antibody captured, ATP 10 uM; remark: listed apart in the source
Protocol: as §1, §4

[14] = target: T2, mouse CTLA4 extracellular region linked …; test: as above
Protocol: as §1, §4

[15] = target: T3, cynomolgus monkey CTLA4 …; test: as above
Protocol: as §1, §4

human CTLA4 [16] = target: T1, human CTLA4; test: SPR Biacore T200, 37C, antibody captured, ATP 100 uM; remark: listed apart in the source
Protocol: as §1, §4

[17] = target: T2, mouse CTLA4 extracellular region linked …; test: as above
Protocol: as §1, §4

[18] = target: T3, cynomolgus monkey CTLA4 …; test: as above
Protocol: as §1, §4

[19] = target: T4, human FcγRIa extracellular domain with C-terminal His-tag (human, UniProt P12314 16-292); test: SPR Biacore T200, captured Ab, pH 7.4
T4 construct: extracellular domain; also called hFcγR Ia; hFcγRIa
T4 sequence (P12314 16-292): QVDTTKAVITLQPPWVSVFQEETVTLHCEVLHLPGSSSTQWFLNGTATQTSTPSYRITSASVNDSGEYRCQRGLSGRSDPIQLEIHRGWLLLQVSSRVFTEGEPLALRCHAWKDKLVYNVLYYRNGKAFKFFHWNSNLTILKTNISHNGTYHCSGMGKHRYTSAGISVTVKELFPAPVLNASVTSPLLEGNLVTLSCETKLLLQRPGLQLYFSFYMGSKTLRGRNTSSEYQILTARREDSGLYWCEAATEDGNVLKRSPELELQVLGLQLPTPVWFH
Protocol: (§5) The interaction between the generated antibodies and human FcγRs was analyzed by the following method using Biacore T200. 50 mM Na-Phosphate, 150 mM NaCl, 0.05% Tween20 (pH 7.4) was used as the running buffer, and the assay was performed at 25° C. For the sensor chips, Series S SA (GE Healthcare) chips onto which CaptureSelect Human Fab-lambda Kinetics Biotin Conjugate (Thermo Fisher Scientific) was immobilized were used. The antibodies of interest were captured onto these chips and each FcγR diluted in the running buffer was allowed to interact with them. Chips were regenerated with 10 mM Glycine-HCl (pH 1.5) and 25 mM NaOH, and assay was performed by repeatedly capturing antibodies. The dissociation constants KD (mol/L) for FcγRs of each antibody were calculated using Biacore T200 Evaluation Software 2.0, using the 1:1 Langmuir binding model for FcγRIa and FcγRIIIa and the steady state affinity model for FcγRIIa. For FcγRIIb, the binding amount of FcγRIIb per unit amount of antibody was calculated by correcting the binding amount of FcγRIIb obtained from the sensorgram obtained by the measurement with the amount of antibody captured onto the chip surface.

[20] = target: T5, human FcγRIIa R allotype extracellular domain with C-terminal His-tag (human, UniProt P12318 34-217); test: SPR Biacore T200, captured Ab, pH 7.4
T5 construct: extracellular domain; also called hFcγR IIa R
T5 sequence (looked up): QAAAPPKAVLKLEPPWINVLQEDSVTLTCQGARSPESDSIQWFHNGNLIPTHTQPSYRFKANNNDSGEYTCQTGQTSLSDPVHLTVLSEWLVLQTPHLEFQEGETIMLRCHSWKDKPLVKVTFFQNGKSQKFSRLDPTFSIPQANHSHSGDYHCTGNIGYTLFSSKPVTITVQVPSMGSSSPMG
Protocol: as §5

[21] = target: T6, human FcγRIIa H allotype extracellular domain with C-terminal His-tag (human, UniProt P12318 34-217); test: SPR Biacore T200, captured Ab, pH 7.4
T6 construct: extracellular domain; also called hFcγR IIa H
T6 sequence (looked up): T5 sequence (looked up) with R134H
Protocol: as §5

[22] = target: T7, human FcγRIIIa F allotype extracellular domain with C-terminal His-tag (human, UniProt P08637 17-208); test: SPR Biacore T200, captured Ab, pH 7.4
T7 construct: extracellular domain; also called hFcγR IIIa F
T7 sequence (P08637 17-208): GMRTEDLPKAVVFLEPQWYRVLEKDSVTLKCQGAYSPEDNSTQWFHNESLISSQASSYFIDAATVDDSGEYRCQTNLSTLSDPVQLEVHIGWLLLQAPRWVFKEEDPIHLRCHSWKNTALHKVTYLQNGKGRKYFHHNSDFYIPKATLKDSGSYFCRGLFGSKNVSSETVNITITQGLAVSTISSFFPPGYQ
Protocol: as §5

[23] = target: T8, human FcγRIIIa V allotype extracellular domain with C-terminal His-tag (human, UniProt P08637 17-208); test: SPR Biacore T200, captured Ab, pH 7.4
T8 construct: extracellular domain; also called hFcγR IIIa V
T8 sequence (P08637 17-208 F176V): as the sequence (P08637 17-208) above, with F160V counted along it
Protocol: as §5

[24] = target: T9, human FcγRIIb extracellular domain with C-terminal His-tag (human, UniProt P31994 43-217); test: SPR; FcγRIIb bound amount per unit captured Ab
T9 construct: extracellular domain; also called hFcγR IIb
T9 sequence (looked up): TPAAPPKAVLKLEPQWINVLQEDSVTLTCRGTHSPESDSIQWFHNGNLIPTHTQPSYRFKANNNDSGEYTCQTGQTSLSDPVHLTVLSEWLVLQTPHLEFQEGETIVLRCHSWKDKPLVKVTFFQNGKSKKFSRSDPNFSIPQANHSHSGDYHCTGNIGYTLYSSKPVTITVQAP
Protocol: as §5

human FcRn [25] = target: T10, human FcRn (human, UniProt P55899 24-290; P61769 21-119); test: SPR Biacore T200, captured Ab, pH 6.0, steady state
T10 construct: Prepared by the method of WO 2010/107110; also called hFcRn
Protocol: The interaction between the generated antibodies and human FcRn was analyzed by the following method using Biacore T200. 50 mM Na-Phosphate, 150 mM NaCl, 0.05% Tween20 (pH 6.0) was used as the running buffer, and the assay was performed at 25° C. For the sensor chip, Series S SA (GE Healthcare) chips onto which CaptureSelect Human Fab-lambda Kinetics Biotin Conjugate (Thermo Fisher Scientific) was immobilized were used. The antibodies of interest were captured onto these chips and FcRn diluted in the running buffer was allowed to interact with them. Chips were regenerated with 10 mM Glycine-HCl (pH 1.5) and 25 mM NaOH, and assay was performed by repeatedly capturing antibodies. The dissociation constant for FcRn of each antibody was calculated using the steady state model, using Biacore T200 Evaluation Software 2.0.

human FcRn [26] = target: T10, human FcRn; test: SPR; KD of 04H1656-G1m/04L1610-lam1 divided by KD of variant
[27] = target: T4, human FcγRIa extracellular domain with …; test: as above
[28] = target: T5, human FcγRIIa R allotype extracellular …; test: as above
[29] = target: T6, human FcγRIIa H allotype extracellular …; test: as above
[30] = target: T7, human FcγRIIIa F allotype extracellular …; test: as above
[31] = target: T8, human FcγRIIIa V allotype extracellular …; test: as above
[32] = target: T9, human FcγRIIb extracellular domain with …; test: SPR; binding amount divided by that of 04H1656-G1m/04L1610-lam1

T1 sequence (chain, as listed by the source limits assumed): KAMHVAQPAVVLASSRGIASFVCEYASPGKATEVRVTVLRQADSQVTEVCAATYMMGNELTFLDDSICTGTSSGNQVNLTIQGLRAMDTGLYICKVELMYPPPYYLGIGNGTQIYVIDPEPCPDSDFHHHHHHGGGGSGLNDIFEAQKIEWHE

B1: 04H1389-G1m/04L1086-lam1 (antibody, human IgG1, lambda, V domains shown)
VH: EVQLVESGGGLVKPGGSLRLSCAASGFTFSSKTMNWVRQAPGKGLEWVSSISTQSHYIYYAESVKGRFTISRDNAKNSLYLQMNSLRAEDTAVYYCARYGKREDMLWVFDYWGQGTLVTVSS
VL: QSALTQPPSASGSPGQTVTISCDGPSTGVGDYNYVHWYQQHPGKAPKLMIYFTSKKPSGVPDRFSGSKSGNTASLTVSGLQAEDEADYFCQTYAAPLGPMFGGGTKLTVLG
Kd (human CTLA4 [1]): 180 nM
Kd (human CTLA4 [2]): 43 nM
Kd (human CTLA4 [3]): 37 nM
Kd (human CTLA4 [4]): 44 nM
koff (human CTLA4 [4]): 0.0061 s⁻¹
kon (human CTLA4 [4]): 140000 M⁻¹ s⁻¹
Kd (human CTLA4 [5]): 130 nM
koff (human CTLA4 [5]): 0.018 s⁻¹
kon (human CTLA4 [5]): 140000 M⁻¹ s⁻¹
Kd (human CTLA4 [6]): 32 nM
koff (human CTLA4 [6]): 0.0032 s⁻¹
kon (human CTLA4 [6]): 100000 M⁻¹ s⁻¹
Kd (human CTLA4 [7]): 21 nM
Kd (human CTLA4 [8]): 5100 nM
Kd (human CTLA4 [9]): 5700 nM

B2: 04H1389-G1m/04L1305-k0MT (antibody, human IgG1, kappa)
heavy: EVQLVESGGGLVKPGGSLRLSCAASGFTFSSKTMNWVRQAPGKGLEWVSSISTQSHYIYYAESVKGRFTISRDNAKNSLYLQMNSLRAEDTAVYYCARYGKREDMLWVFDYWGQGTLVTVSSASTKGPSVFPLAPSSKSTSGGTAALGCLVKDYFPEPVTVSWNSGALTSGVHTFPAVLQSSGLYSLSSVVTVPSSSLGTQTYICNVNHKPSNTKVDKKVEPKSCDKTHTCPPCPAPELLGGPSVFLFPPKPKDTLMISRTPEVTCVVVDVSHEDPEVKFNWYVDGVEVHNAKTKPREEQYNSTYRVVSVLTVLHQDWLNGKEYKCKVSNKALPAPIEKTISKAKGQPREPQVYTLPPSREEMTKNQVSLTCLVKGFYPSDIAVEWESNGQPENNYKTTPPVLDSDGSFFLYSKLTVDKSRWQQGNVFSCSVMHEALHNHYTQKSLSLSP
light: DIVMTQSPLSLPVTPGEPASISCDGPSTGVGDYNYVHWYQQKPGQAPRLLIYFTSKKPSGVPDRFSGSGSGTDFTLKISRVEAEDVGVYYCQTYAAPLGPMFGQGTKLEIKRTVAAPSVFIFPPSDEQLKSGTASVVCLLNNFYPREAKVQWKVDNALQSGNSQESVTEQDSKDSTYSLSSTLTLSKADYEKHKVYACEVTHQGLSSPVTKSFNRGEC
Kd (human CTLA4 [1]): 82 nM
Kd (human CTLA4 [10]): 72 nM
Kd [11]: 210 nM
Kd [12]: 140 nM
Kd (human CTLA4 [2]): 19 nM
Kd (human CTLA4 [3]): 15 nM
Kd (human CTLA4 [4]): 25 nM
koff (human CTLA4 [4]): 0.0038 s⁻¹
kon (human CTLA4 [4]): 160000 M⁻¹ s⁻¹
Kd (human CTLA4 [5]): 79 nM
koff (human CTLA4 [5]): 0.012 s⁻¹
kon (human CTLA4 [5]): 150000 M⁻¹ s⁻¹
Kd (human CTLA4 [6]): 17 nM
koff (human CTLA4 [6]): 0.0019 s⁻¹
kon (human CTLA4 [6]): 110000 M⁻¹ s⁻¹
Kd (human CTLA4 [13]): 14 nM
Kd [14]: 32 nM
Kd [15]: 26 nM
Kd (human CTLA4 [7]): 5.4 nM
Kd (human CTLA4 [16]): 4.6 nM
Kd [17]: 12 nM
Kd [18]: 12 nM
Kd (human CTLA4 [8]): 3200 nM
Kd (human CTLA4 [9]): 2400 nM

The next lines start with the values.

Kd [19]: 0.12 nM
Kd [20]: 180 nM
Kd [21]: 99 nM
Kd [22]: 17 nM
Kd [23]: 4.4 nM
Binding amount [24]: 0.014
Kd (human FcRn [25]): 2000 nM
Relative value to KD between G1m and hFcRn (human FcRn [26]): 0.9
Relative value to KD between G1m and hFcγRs [27]: 0.8
Relative value to KD between G1m and hFcγRs [28]: 9
Relative value to KD between G1m and hFcγRs [29]: 13.5
Relative value to KD between G1m and hFcγRs [30]: 58.1
Relative value to KD between G1m and hFcγRs [31]: 218
Relative binding amount [32]: 1.7
B3: 04H1654-KT462/04L1610-lam1//04H1656-HT441/04L1610-lam1 (antibody, human IgG1, lambda)
heavy 1: QVQLVESGGGVVQPGGSLRLSCAASGFTFSSKTMNWVRQAPGKGLEWVSSISTQSHYIYYARSVRGRFTISRDNAKNSLYLQMNSLRAEDTAVYYCARYGKREDMLWVFDYWGQGTLVTVSSASTKGPSVFPLAPSSKSTSGGTAALGCLVKDYFPEPVTVSWNSGALTSGVHTFPAVLQSSGLYSLSSVVTVPSSSLGTQTYICNVNHKPSNTKVDKRVEPKSCDKTHTCPPCPAPEFQWGPMVFLFPPKPKDVLMISRTPEVTCVVVDVSDEEPEVKFNWYVDGVEVHNAKTKPREEQYNATYRVVSVLPVLHQDWLNGKEYKCKVSNDALPAPIEKTISKAKGQPREPQVYTLPPSRKEMTKNQVSLTCLVKGFYPSDIAVEWESNGQPENNYKTTPPVLDSDGSFFLYSKLTVDKSRWQQGNVFSCSVMHEALHNHYTQKSLSLSP
heavy 2: B3 heavy 1 with R62E, K101A, F239L, Q240L, W241A, M244S, D273H, K339E, K361E, K444E
light: QSALTQPPSASGSPGQSVTISCEGPSTGVGDYNWVHWYQQHPGKAPKLMIYFTSKKPSGVPDRFSGSKSGNTASLTVSGLQAEDEADYYCQTYAAPLGPMFGGGTKLTVLGQPKAAPSVTLFPPSSEELQANKATLVCLISDFYPGAVTVAWKADSSPVKAGVETTTPSKQSNNKYAASSYLSLTPEQWKSHRSYSCQVTHEGSTVEKTVAPTECS
notes: Heterodimerized antibody

Kd [19]: 0.14 nM
Kd [20]: 180 nM
Kd [21]: 92 nM
Kd [22]: 20 nM
Kd [23]: 5.1 nM
Binding amount [24]: 0.012
Kd (human FcRn [25]): 540 nM
Relative value to KD between G1m and hFcRn (human FcRn [26]): 3.2
Relative value to KD between G1m and hFcγRs [27]: 0.6
Relative value to KD between G1m and hFcγRs [28]: 8.9
Relative value to KD between G1m and hFcγRs [29]: 14.5
Relative value to KD between G1m and hFcγRs [30]: 50.8
Relative value to KD between G1m and hFcγRs [31]: 190
Relative binding amount [32]: 1.5
B4: 04H1654-KT473/04L1610-lam1//04H1656-HT451/04L1610-lam1 (antibody)
heavy 1: B3 heavy 1 with N439A, Y441T, Q443R, S445E
heavy 2: QVQLVESGGGVVQPGGSLRLSCAASGFTFSSKTMNWVRQAPGKGLEWVSSISTQSHYIYYAESVRGRFTISRDNAKNSLYLQMNSLRAEDTAVYYCARYGAREDMLWVFDYWGQGTLVTVSSASTKGPSVFPLAPSSKSTSGGTAALGCLVKDYFPEPVTVSWNSGALTSGVHTFPAVLQSSGLYSLSSVVTVPSSSLGTQTYICNVNHKPSNTKVDKRVEPKSCDKTHTCPPCPAPELLAGPSVFLFPPKPKDVLMISRTPEVTCVVVDVSHEEPEVKFNWYVDGVEVHNAKTKPREEQYNATYRVVSVLPVLHQDWLNGKEYKCKVSNDALPAPIEETISKAKGQPREPQVYTLPPSREEMTKNQVSLTCLVKGFYPSDIAVEWESNGQPENNYKTTPPVLDSDGSFFLYSKLTVDKSRWQQGNVFSCSVMHEALHAHTTREELSLSP
light: B3 light
notes: Heterodimerized antibody with N434A/Y436T/Q438R/S440E; also called SW1610-ART5+ACT1
